The values that follow come from paper PMC6667623, “Regulation of Glutarate Catabolism by GntR Family Regulator CsiR and LysR Family Regulator GcdR in Pseudomonas putida KT2440” (mBio, 2019).

In data set [1] the target is T1, CsiR (Pseudomonas putida KT2440) (UniProt Q88IU1).
T1 sequence: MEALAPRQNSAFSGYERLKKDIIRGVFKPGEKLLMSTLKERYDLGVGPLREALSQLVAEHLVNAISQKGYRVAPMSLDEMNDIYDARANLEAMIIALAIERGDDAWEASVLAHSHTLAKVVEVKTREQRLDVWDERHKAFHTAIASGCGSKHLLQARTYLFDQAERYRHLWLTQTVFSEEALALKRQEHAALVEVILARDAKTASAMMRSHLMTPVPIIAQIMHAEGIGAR
The experiment in a line: EMSA. Conditions: 10 mM Tris-HCl pH 7.4, 50 mM KCl, 0.5 mM EDTA, 10% glycerol, 1 mM DTT; 30 C, 30 min; 6% native PAGE at 4 C. A general note: A gel shift assay detects complexes by their altered migration in electrophoresis.

The target of data set [2] is T2, GcdR (Pseudomonas putida KT2440) (UniProt Q88RH3).
T2 sequence: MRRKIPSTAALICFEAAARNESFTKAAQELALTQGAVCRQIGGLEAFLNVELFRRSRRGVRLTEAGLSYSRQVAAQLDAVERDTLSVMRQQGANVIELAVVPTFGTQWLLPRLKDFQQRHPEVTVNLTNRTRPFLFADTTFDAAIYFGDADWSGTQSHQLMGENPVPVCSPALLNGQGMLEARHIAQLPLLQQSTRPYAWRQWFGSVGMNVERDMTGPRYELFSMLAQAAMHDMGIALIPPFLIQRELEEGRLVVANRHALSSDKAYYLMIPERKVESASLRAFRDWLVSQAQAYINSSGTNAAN
Nature of the data set: EMSA. The following applies: 10 mM Tris-HCl pH 7.4, 50 mM KCl, 0.5 mM EDTA, 10% glycerol, 1 mM DTT; 30 C, 30 min; 6% native PAGE at 4 C.

The target of data set [3] is His6-tagged GcdR of P. putida KT2440 (Pseudomonas putida KT2440) (UniProt Q88RH3). The experiment in a line: SEC; Superdex 200 10/300 GL gel filtration of purified GcdR against molecular mass standards, compared with SDS-PAGE; buffer A (20 mM sodium phosphate, 500 mM sodium chloride, pH 7.4), 0.5 ml min^-1. For orientation: In gel filtration, larger molecules generally elute earlier.

Data set [4] concerns the molecule itself. Nature of the data set: SEC; Superdex 200 10/300 GL gel filtration of purified CsiR against molecular mass standards, compared with SDS-PAGE; buffer C (50 mM sodium phosphate, 150 mM sodium chloride, pH 7.2), 0.5 ml min^-1.

For “GATCCTGTTCCTCAAAACGTTTTGCCGATCATACCGAAACCCTCTGCTGACGAAAAACAATGGACAAACACGAGTAGTGTCGTTGAAAAATAAAAATGTAGACATTTTCAGTTAGTGGCGATATTTTTACCTCGCCCGCACTGATCCAGGTCATGACCGGACGGCGCCATCTACTTTTTTAGCCAGGACACTGCC (double strand) [F1 (csiR-csiD intergenic region)]”, the binding result in data set [1] is “binds”. As for “GCCGCCTCGAAGCAAATCAGGGCGGCGGTACTGGGGATCTTACGGCGCATGTACGTCAACCTCACTTGTAAGGCTGTCAATAAGGCGTTTTGCCGATTTACGGAGTGACAAAATATCACTAATCGGTGCGCAATCCTCGTTTGTCGCCGCAGCCGATCAGGCCTAGGCTCAAAGGCACAAGAAACTGACCCCTATTTCGAGGATTCGCTCATGGTCGGTAAAGCAAGTTTCAACTGGATCGACCCGTTGCTGCTGGATCA (double strand)”, the binding entry in data set [2] is reported as “binds”.

Consider “His6-tagged GcdR of P. putida KT2440 (from UniProt Q88RH3 1-305) (natural protein)”, for which the stoichiometry N in data set [3] was 4.

B1: His6-tagged CsiR protein of P. putida KT2440 (natural protein, Pseudomonas putida KT2440, UniProt Q88IU1 1-231, looked up)
chain: T1 sequence
notes: CsiR, GntR family transcriptional regulator of Pseudomonas putida KT2440, encoded by csiR (pp2908); gene amplified from genomic DNA with primers csiR-F/csiR-R and cloned BamHI/HindIII into pETDuet-1; Cloning into the BamHI/HindIII sites of pETDuet-1 would usually give an N-terminal His tag (surmise); No tag cleavage is described; also called GntR family regulator CsiR; source: E. coli BL21(DE3) …
With B1, the “stoichiometry N” value in data set [4] came out at 2.

The term stoichiometry N denotes the number of molecules, sites or subunits per partner or assembly.
